Results taken from US20190002511A1.
pKi: −log10 of the molar value.

Experiments:
[1] = target: human α-thrombin (recombinant) (human) (UniProt P00734); experiment: assay not named
[2] = target: human α-thrombin (recombinant) (human) (UniProt P00734); experiment: cell-based or functional assay

β-variegin (peptide) was tested, and the pKi [1] was < 7.52 and the time to observe clot formation in blood tubes, 300 µM peptide [2] was 4 h.
